# Data: the supplement of paper PMC11865577
# Legend:
# Test in all cases: pull-down binding Z-score (relative to library population); higher = stronger binding
# [1] = system: G-clamp-N3 (biotin conjugate); details: RNA library: Library-1 (pre-miRNA loops + repeats)
# Outline: (§1)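 Heat-folded RNA library (1 μg, Cy5 or Cy3 end label, phosphate/NaCl/KCl buffer) was captured for 60 min at 25 °C on streptavidin beads displaying 100 pmol of biotin-conjugated small molecule, then washed three times. The bound fraction, eluted in hot SDS, was hybridised to a DNA barcode microarray at 55.5 °C for 20 h. Z-scores for binding were taken against the library mean and standard deviation after beads-only subtraction and trimmed averaging of replicate barcoded probes.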
# [2] = system: TO-3-N3 (biotin conjugate); details: RNA library: Library-2
# Outline: as §1
# [3] = system: TO-3-N3-2 (biotin conjugate); details: RNA library: Library-2
# Outline: as §1
# TO-N3 (biotin conjugate) = details: RNA library: Library-2
# Outline: as §1
# [4] = system: TO-N3-2 (biotin conjugate); details: RNA library: Library-2
# Outline: as §1
Sequence,pull-down binding Z-score [1],pull-down binding Z-score [2],pull-down binding Z-score [3],pull-down binding Z-score (TO-N3 (biotin conjugate)),pull-down binding Z-score [4]
GGAGAUUGGAGUGGCCAGUGUUCCUAAACAAUUC [hsa-mir-4263],-0.451,0.0793,0.226,0.387,0.663
UGAGCAGGGUCCACACCAAGUCGUGUUCA [hsa-mir-27a],-0.575,0.869,0.465,1.14,1.09
AGCCUCCAAACCUGUAGACAGGGUCAUGCAGUACUAGGGGCGAG [hsa-mir-4478],-0.233,-0.0187,0.175,0.546,0.966
GCAGGGACCCCUCCAAGUUGGGGACGGCAGC [hsa-mir-6858],-0.0891,0.172,0.0497,0.676,1.09
GCAGCUAGUAUUCUCACUCCAGUUGC [hsa-mir-153-1],-1.31,-0.447,-0.655,-0.204,0.592
UUGUUCUGAUGUACUACGACAA [hsa-mir-7-3],-1.28,-0.716,-0.294,-0.672,-0.186
UUUUAAUUUUUUUAAAA [hsa-mir-3606],-1.03,0.211,-0.175,-0.183,-1.39
GCAGUCUGCUUUGUGCCAACACUGGGGUGAUGACUGC [hsa-mir-3157],1.23,0.502,-0.203,0.442,0.186
GAGUACCUUCCAACACGAGCUCUC [hsa-mir-3664],-1.16,-0.183,-0.173,0.318,1.06
AGUAUUUUAAUCAUAGAUUGUAUUUAGUUAGUUUUUAAUACU [hsa-mir-4637],-0.0232,-0.732,0.157,-0.955,-0.965
CAGCCUGUUGUCAAGGCUG [hsa-mir-3130-1],-0.13,0.535,0.129,0.712,-0.199
GGUGGGUGCC [hsa-mir-1268b],-0.587,-0.142,-0.32,-0.332,-0.075
AACUGUGCGGCCGGCCACACCGUCACACCGGGU [hsa-mir-8083],-0.324,1.14,0.611,1.44,1.28
UCUUUGGUAAUAAGGUUUGGCAAAGA [hsa-mir-576],1.47,1.04,0.625,0.862,-0.0599
UCCUGGGAAGCAUGGUAGCCAGGA [hsa-mir-5192],2.06,0.314,0.431,0.319,0.994
CCCUGGUCAGACUCUCCGGGG [hsa-mir-4675],-0.63,-0.139,-0.287,-0.368,-0.561
AGGCUGGUCUCAAACUCCU [hsa-mir-5096],-0.82,-0.118,-0.228,-0.0712,0.128
CAUAUGUAUGUAUGUAUGUCUGUUACACAUAUG [hsa-mir-3688-1],-0.787,-0.769,-0.0225,-0.818,-0.421
ACUUUCUGUUUGAAAGAAAACAAAGU [hsa-mir-519e],-0.167,-0.798,-0.409,-0.981,-0.767
CCCAUAUGGAUUACUUUGCUAUGGA [hsa-mir-206],-0.287,0.0156,-0.188,0.036,0.0791
CUGUGCAGGGCCAACUGUGCACAC [hsa-mir-3681],0.785,0.827,0.227,1.15,1.14
CUCUUGAUAGCAGACAU [hsa-mir-4775],-0.839,-0.326,0.14,-0.14,0.291
GCAGUCCUGUGGGAAUGAGAGAUGCCAAACUGGACCUGC [hsa-mir-3972],1.52,0.53,0.373,1.4,1.38
CCGACUCUGAGUAUGAUAGAAGUC [hsa-mir-148a],-1.56,0.905,0.613,1.48,2.33
AAGGCGGGUGGUGCUCAGAUCGCCU [hsa-mir-326],0.799,-0.0387,0.00254,0.274,0.779

Sequence,pull-down binding Z-score [1],pull-down binding Z-score [2],pull-down binding Z-score [3],pull-down binding Z-score (TO-N3 (biotin conjugate)),pull-down binding Z-score [4]
CGGGCUGAUUGCGCUAACAGUGGCCCC [hsa-mir-4783],-0.491,-0.256,-0.117,0.248,1.12
AUGUUCGCUUCAUUCAUCAUGAAUAA [hsa-mir-655],-0.248,0.297,0.089,0.385,-0.299
AAGGCCAGGACCCGCUGACCCAU [hsa-mir-6872],-1.17,0.148,-0.0792,0.411,0.567
GGUGGUUGUGGGAGUCACU [hsa-mir-4418],-0.575,1.58,1.89,2.18,1.93
CACAGAGUAAGCAUCAAUAGCAUUGGCAAGUUGAACUGAGCUGUC [hsa-mir-6895],-0.438,-0.393,-0.0293,0.466,1.37
AUGUUUAUUGUAAAGAUACUUU [hsa-mir-1305],-0.249,-0.643,-0.418,-0.517,-0.121
UCCCAGGAAAUUCACUUUAGGAAGUCCUAGGA [hsa-mir-5571],0.804,-0.734,-0.303,-1.1,-1.41
CGGAAUUCUCCAGAGCCUCUG [hsa-mir-6889],-0.773,0.188,0.0162,0.453,0.584
AGUGUGCAGUCAUCCACACA [hsa-mir-4731],-0.603,-0.32,-0.196,-0.519,-0.401
UAAUAUGCACUAUAAAUAUAUUG [hsa-mir-450a-1],-0.725,-0.774,-0.431,-1.16,-1.33
GGCUGUGAGCUCUAGCAAUGCCC [hsa-mir-146b],-0.867,0.251,0.158,0.59,1.31
CAUGCAUGUGUCUAGAAAUAUGUUUU [hsa-mir-507],0.0271,-0.147,0.0237,0.0527,0.104
GGUGUCAUGCCCCAAGAUAACC [hsa-mir-634],-0.532,-0.514,-0.28,-0.387,0.0681
GCGGGGGUGGGGGCCUCGCCCUGCUUGGGCCCUCCCUGAC [hsa-mir-6821],0.419,2.12,1.75,2.47,2.31
GGGAGAGGGGCCCAGCUGACCCUCCUGUC [hsa-mir-6879],-0.867,0.755,0.744,1.68,1.89
GCGGUUUUUGCUAUUGGUUUUAAUGGC [hsa-mir-548au],-0.139,-0.185,-0.189,-0.205,-0.183
AGGCCAUACGUGUUGGAGAUU [hsa-mir-4461],0.253,0.627,0.301,0.792,0.79
GGCAGAAAUGUC [hsa-mir-8053],0.69,-0.653,-0.375,-1.13,-1.13
CUCAGCAUGUUGAGCCCUGUCUCUGGGGAGCUGAC [hsa-mir-6505],1.48,0.254,-0.142,0.597,0.878
AAAUAAAAGAUGGAGUCGUUUGACGUCUUUUAACACCCUUU [hsa-mir-8055],-0.175,-0.623,-0.1,-0.706,-0.866
GGAGCUGGCUGCUGGCCUCAGUUCU [hsa-mir-5001],-1.38,-0.269,-0.449,0.0865,1.05
GAAGAUUCUGAAAAUCACUAACU [hsa-mir-6878],-1.6,0.159,0.167,0.273,-0.0867
UCAUAAAGAUGAUC [hsa-mir-8067],-0.0232,0.251,0.0624,0.381,0.0453
CUUUCUGUUGUCUGAGAGAAAAGAAAG [hsa-mir-520a],0.6,-0.684,-0.385,-0.74,-0.553
CUCUGCUGUGUAAAUAGUUCUGAGUAGU [hsa-mir-454],-0.424,-0.17,0.0557,0.186,0.574

Sequence,pull-down binding Z-score [1],pull-down binding Z-score [2],pull-down binding Z-score [3],pull-down binding Z-score (TO-N3 (biotin conjugate)),pull-down binding Z-score [4]
AGUUUCUGGAAGUUCUGACAUUCCAGAAACU [hsa-mir-3199-1],-0.18,-0.846,-0.409,-1.1,-0.95
CAUGUUAAGUGUUGUCCUACAG [hsa-mir-5087],-0.819,-0.483,-0.142,-0.368,0.127
AUCUGCAGGGCAUUGUGCUAACAGGU [hsa-mir-4681],1.35,0.532,0.211,0.644,0.0756
UGUCAUUGAAAGUAAUAGCA [hsa-mir-548h-3],-1.07,-0.165,-0.0124,-0.141,-0.319
AAUUUUUUUUUAAUUUAAAAAAUU [hsa-mir-3938],0.843,-0.808,0.127,-1.13,-1.36
CCACUGGGAAUGCUCCCUGAGGACGUUAUAUGAGUG [hsa-mir-4319],0.953,0.544,0.399,0.802,0.872
CACACGCUUUAUUUGUGCCGUUUG [hsa-mir-758],-0.691,-0.0281,-0.318,-0.164,-0.655
GGCUCUGGGUCCUGCUCCUUAGAGCA [hsa-mir-2467],0.344,0.259,-0.0911,0.575,0.837
CUCCUCCGCUGCCGCCGGGAGAG [hsa-mir-4785],0.0193,-0.584,-0.327,-0.794,0.0312
UGGCAAUUCAGUAAAAAUGCUCA [hsa-mir-6715b],-0.751,-0.296,-0.14,-0.281,0.143
GAGACGCUUUUAAAGUCUC [hsa-mir-3926-2],0.131,-0.631,-0.552,-0.855,-1.22
UCAGGGAGAAAGUGCAUACAGCCCCUG [hsa-mir-328],-0.344,-0.47,-0.166,-0.112,0.36
AGGCUCUGCAAGAUCAACCGAGCA [hsa-mir-330],-0.474,0.196,0.141,0.492,0.739
CCGUGCCCUGGCCACUCAUUCGG [hsa-mir-6741],-0.0927,0.294,0.133,0.45,1.1
AUCUGAAUGAUCUCAGC [hsa-mir-626],-1.32,0.58,0.105,0.677,0.364
UGAGCAUUCUAGCAGCAGUUUGAUGAUCA [hsa-mir-6516],-0.0961,-0.57,-0.419,-0.394,-0.196
CGGUGUGCAAAUGUGUGUGUGCGGUGUUAUGCCG [hsa-mir-4442],-0.0251,-0.732,-0.663,-0.869,-0.316
GACUGGACAACAUGAUGAGCCCAAACCAAUC [hsa-mir-5092],-1.85,-0.245,0.166,0.0433,0.433
CGGAGCCUCGCAGGGUCGGGCUCGGGCUCCCUAACCGUCUCCGCUUCUUC [hsa-mir-6084],-0.288,0.896,0.558,1.36,1.77
UGUAAAAUGUAAUAACAUUUCUUAUGUUUAAAACACUUUACA [hsa-mir-4801],-0.257,-0.755,-0.401,-0.783,-1.14
UUAAUGAGGCCAUAGA [hsa-mir-6863],-0.397,-0.374,-0.277,-0.328,-0.294
AAAGCCAGGGACCCUGAGAGGCUUU [hsa-mir-6885],3.29,0.0246,0.0899,0.556,1.24
AAUGCAGUCUGCACCCUGCUGCAUU [hsa-mir-6504],-0.398,0.237,-0.145,0.0527,0.0157
CCCUGCCCAGUGCAGGAG [hsa-mir-6069],0.386,-0.42,-0.478,-0.817,-0.914
